The numbers were not newly measured in PMC4689310, which cites them from elsewhere.

Data set [1] addresses H3 peptide 1-18 (Homo sapiens) (UniProt P68431).
Data set [2] addresses H4K20me1 peptide (Homo sapiens) (UniProt P62805).
The target of data set [3] is H4K16ac peptide (Homo sapiens) (UniProt P62805). In words: ITC.
The target of data set [4] is H3K23ac peptide 13-32 (Homo sapiens) (UniProt P68431).
Data set [5] concerns the target H3 K4un/K23ac peptide (Homo sapiens) (UniProt P68431).
Data set [6] addresses H3 unmodified K4 peptide (Homo sapiens) (UniProt P68431).
Data set [7] deals with H3 peptide 1-28 (Homo sapiens) (UniProt P68431).
Data set [8] addresses H3K9me3 peptide 1-28 (Homo sapiens) (UniProt P68431).
The target in data set [9] is H3K18ac peptide 1-28 (Homo sapiens) (UniProt P68431).

Chain of DPF3b tandem PHD fingers (Q92784 259-366): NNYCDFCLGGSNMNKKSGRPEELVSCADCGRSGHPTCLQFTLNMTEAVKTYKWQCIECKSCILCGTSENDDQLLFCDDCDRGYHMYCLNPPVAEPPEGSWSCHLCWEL

As to “DPF3b tandem PHD fingers (from UniProt Q92784)”, the Kd in [1] was 2300 nM.

Regarding MSL3 chromodomain (from UniProt Q8N5Y2), the equilibrium dissociation constant (Kd) in [2] was 10000 nM.

For the substance “TAF1 double bromodomain (from UniProt P21675)”, the equilibrium dissociation constant (Kd) in [3] was 39000 nM.

On to TRIM24 PHD-Bromo (from UniProt O15164), for which the values for the dissociation constant (Kd) in data set [4], in data set [5] and in [6] were 8800 nM, 96 nM and 2300 nM, respectively.

On to TRIM33 PHD-Bromo (from UniProt Q9UPN9), for which the Kd is 460 nM in data set [7], 200 nM in [8] and 210 nM in [9].

By Kd is commonly meant a measure of binding affinity in units of concentration.
